The record followed here is publication PMC8480326, “Chemoenzymatic glycan-selective remodeling of a therapeutic lysosomal enzyme with high-affinity M6P-glycan ligands. Enzyme substrate specificity is the name of the game” (Chemical Science, 2021).

This data set is described as follows: observation during stepwise remodeling. The conditions noted are these: glycan lost; control: commercial rhGAA.

Take “recombinant human acid α-glucosidase (rhGAA, Lumizyme): Endo-F3 deglycosylation”: the stability_or_folding entry is “decreases”.
